# Test results: patent publication US9789196B2, “Site-specific insulin-polymer conjugates” (AntriaBio, Inc., priority 2003, dated 2017)
# Key:
# [1] = Characterization of PEG-insulin PLGA microspheres (coreload, encapsulation efficiency by RP-HPLC); assay type: physicochemical; details: PLGA 45:55 L:G, 0.15 dL/g, acid end group microspheres, nominal core load 25 wt %
# Method: PEG-insulin F5000 (50 mg) was dissolved in 1 ml methylene chloride. The solution was added to a volume of 1 ml methylene chloride containing 150 mg PLGA 45:55 (lac:gly), 0.15 dl/g IV with acid end groups. The methylene chloride solution was added to 5 ml water containing 1% poly(vinyl alcohol) in a 15 ml centrifuge tube and vortex-mixed to form an emulsion. The emulsion was added to 100 ml of water containing 0.3% poly(vinyl alcohol) and stirred for 3 hrs to evaporate the methylene chloride. The hardened microspheres were collected by vacuum filtration on Whatman #1 filter paper and dried.
# The PEG-insulin microspheres' surface morphology and particle size distribution were examined by scanning electron microscope and laser-light scattering particle size analysis, respectively. Analytical reverse phase HPLC was used to quantify the amount of PEG-insulin conjugate encapsulated within the polymer microspheres. Prior to HPLC analysis, a measured quantity of microspheres was dissolved in a volume of acetonitrile, and an equivalent volume of 0.1% TFA in water was added to precipitate the polymer and extract the conjugate into aqueous solution. K2000, K5000, K10000, K20000 and F5000-A were also encapsulated using this method. The results of these tests are collected in Table 1, which lists the PEG-insulin content in % (w/w) of the total microsphere and the encapsulation efficiency, defined as weight of PEG-insulin encapsulated/weight of PEG-insulin added initially. Relatively high drug content up to 28.3% and encapsulation efficiency, up to 100%, were achieved, making the product clinically useful due to reduced total dose required, and commercially attractive due to low losses of starting material. In addition, microspheres were prepared using polymers of varying lactide:glycolide ratios (50:[…]), molecular weights (6.5-24 kDa), intrinsic viscosities (0.09-0.27 dL/g), or terminal ester groups (methyl and lauryl), with a wide range of drug loadings (5-35 wt %).
# Microspheres were prepared with PLGA (45:55 L:G, 0.15 dL/g, acid end group) to a nominal core load of 25 wt %.
# [2] = In vitro release of PEG-insulin from PLGA microspheres; assay type: physicochemical; details: PLGA 45:55 microspheres, nominal core load 25 wt %
# Method: A sample of 15 mg […] PEG-insulin microspheres (14.1% drug content, PLGA 45:55; 0.15 dl/g IV, acid end groups) was suspended in 1.5 ml phosphate buffered saline (pH 7.4, 0.02% sodium azide and 0.02% Tween20) and incubated at 37° C. The supernatant was withdrawn at intervals and analyzed by RP HPLC for released PEG-insulin. The buffer was replaced with fresh PBS and the incubation continued. The data were analyzed for cumulative release as a function of incubation time (FIG. 4). Less than 1.0% of the PEG-insulin is released in the first day and over 95% is released within 18 days. The low “burst” release, high total release and duration over approximately a two-week period are highly desired features of a sustained release insulin formulation.
# [3] = tested on: fasted Sprague-Dawley rats; experiment: Pharmacodynamics of PEG-insulin conjugates after intravenous injection to normal rats (blood glucose); assay type: in vivo, rat; details: 0.3 IU/kg equivalent; for suppression of glucose levels relative to normal human insulin: tail vein injection, fasted Sprague-Dawley rats, 6 hrs, vs Humulin R
# Method: The effects of PEGylation on insulin pharmacodynamics were investigated. These studies were conducted to evaluate the in vivo biological activity (ability to lower serum glucose) of conjugate formulations containing PEG-insulins differing in site of substitution (positional isomers) or PEG molecular weight, relative to a commercially available insulin formulation (Humulin R, Lilly). Blood glucose levels were measured for fasted Sprague-Dawley rats after intravenous administration of F5000, K2000, K5000, K10000, or HumulinR®. The equivalent of 0.3 IU/kg (based on protein concentration and corrected for the weight of the PEG as appropriate; assumes 25 IU/mg protein) were dissolved in normal saline and administered by tail vein injection; N=6 per group. Blood was drawn before test article injection and at intervals over a period of 6 hrs post injection. Serum was isolated by standard procedure and glucose levels were measured using an Accucheck Advantage (Boeringer Ingelheim) glucose meter.
# [4] = tested on: rabbits; details: calculated on a molar basis; cited from earlier work
# [5] = tested on: liver enzymes; details: cited from earlier work
substance,measurement,setting,value
"F5000-A: probably F5000 made with mPEG(5000)-aldehyde, secondary amine bond at PheB1 (Example 5) [Conjugate F5000-A]",Coreload,[1],21 wt %
same,Encapsulation Efficiency,[1],85 wt %
same,"In vitro release, Initial burst",[2],20%
same,"In vitro release, Total",[2],97%
K2000: linear mPEG-SPA 2000 Da attached to the amino group of LysB29 of insulin [Conjugate K2000],suppression of glucose levels relative to normal human insulin,[3],as effective in suppressing the glucose levels in normal rats as equivalent doses of normal human insulin
same,Coreload,[1],24 wt %
same,Encapsulation Efficiency,[1],96 wt %
same,"In vitro release, Initial burst",[2],6%
K5000: PEG-5000 linked to insulin B chain Lys29 [Conjugate K5000],suppression of glucose levels relative to normal human insulin,[3],as effective in suppressing the glucose levels in normal rats as equivalent doses of normal human insulin
same,Coreload,[1],24 wt %
same,Encapsulation Efficiency,[1],96 wt %
same,"In vitro release, Initial burst",[2],2%
"K10000: branched mPEG2-SPA 10,000 Da attached to the amino group of LysB29 of insulin [Conjugate K10000]",duration of action,"[3]; intravenous, normal rats",exceed 6 hours
same,suppression of glucose levels relative to normal human insulin,[3],did not reduce glucose levels to the same extent as the other test articles
same,Coreload,[1],19 wt %
same,Encapsulation Efficiency,[1],76 wt %
same,"In vitro release, Initial burst",[2],80%
"K20000: branched mPEG2-SPA 20,000 Da attached to the amino group of LysB29 of insulin [Conjugate K20000]",Coreload,[1],14 wt %
same,Encapsulation Efficiency,[1],56 wt %
same,"In vitro release, Initial burst",[2],80%
mPEG(1500)-B1-insulin: prior-art site-specific PEG 1500 conjugate of insulin at residue PheB1 (Obermeier; Geiger; Ehrat),insulin effect on reduction of blood sugar levels,[4],100%
same,stability to liver enzymes compared with native insulin,[5],far more stable (to liver enzymes)
mPEG(5000)-PheB1-insulin [Conjugate F5000],suppression of glucose levels relative to normal human insulin,[3],as effective in suppressing the glucose levels in normal rats as equivalent doses of normal human insulin
same,Coreload,[1],24 wt %
same,Encapsulation Efficiency,[1],96 wt %
same,"In vitro release, Initial burst",[2],2%
